{
  "source": "the DeepSol protein solubility set",
  "test": "soluble on expression in E. coli; label from the status in PepcDB or PDB records",
  "data": [
    {"sequence": "SIEKIWAREILDSRGNPTVEVDLYTAKGLFRAAVPSGASTGIYEALELRDGDKQRYLGKGVLKAVDHINSTIAPALISSGLSVVEQEKLDNLMLELDGTENKSKFGANAILGVSLAVCKAGAAERELPLYRHIAQLAGNSDLILPVPAFNVINGGSHAGNKLAMQEFMILPVGAESFRDAMRLGAEVYHTLKGVIKDKYGKDATNVGDEGGFAPNILENSEALELVKEAIDKAGYTEKIVIGMDVAASEFYRDGKYDLDFKSPTDPSRYITGDQLGALYQDFVRDYPVVSIEDPFDQDDWAAWSKFTANVGIQIVGDDLTVTNPKRIERAVEEKACNCLLLKVNQIGSVTEAIQACKLAQENGWGVMVSHRSGETEDTFIADLVVGLCTGQIKTGAPCRSERLAKYNQLMRIEEELGDEARFAGHNFRNPSVLHHHHHH", "values": [
      {"measurement": "soluble on expression in E. coli", "result": "soluble"}
    ]},
    {"sequence": "MNIRERKRKHLEACLEGEVAYQKTTTGLEGFRLRYQALAGLALSEVDLTTPFLGKTLKAPFLIGAMTGGEENGERINLALAEAAEALGVGMMLGSGRILLERPEALRSFRVRKVAPKALLIANLGLAQLRRYGRDDLLRLVEMLEADALAFHVNPLQEAVQRGDTDFRGLVERLAELLPLPFPVMVKEVGHGLSREAALALRDLPLAAVDVAGAGGTSWARVEEWVRFGEVRHPELCEIGIPTARAILEVREVLPHLPLVASGGVYTGTDGAKALALGADLLAVARPLLRPALEGAERVAAWIGDYLEELRTALFAIGARNPKEARGRVERV", "values": [
      {"measurement": "soluble on expression in E. coli", "result": "soluble"}
    ]},
    {"sequence": "MDKFKGAVMVGALRLFALLPWRAVQWVGTAIGWLMWKLPNRSREVARINLSKCFPELSEPELEKLVGRSLMDIGKTLTESACAWIWPAQKSINLVREVEGLEVLKDALASGKGVVGITSHLGNWEVLNHFYCSQCKPIIFYRPPKLKAVDDLLRKQRVQLGNRVAASTKEGILSVIKEVRKGGSVGIPADPEPAESAGIFVPFCGTQALTSKFVPNMLAGGKAVGVFLHAMRLPDGSGYKVVLEAAPEAMYSTDTQTSAAAMSKVVEKYVRAYPSQYMWTMKRFKK", "values": [
      {"measurement": "soluble on expression in E. coli", "result": "not soluble"}
    ]},
    {"sequence": "MGSDKIHHHHHHMREENYEEAAKAFNAAIEANPSDPIGFVNFGNLLGMVGELDKALIFFDKAIGLQEDCAPAYYGAGTIYYKQEKFEDGAKMFKQAIAHKLNETDVYFMLGMCYYQLGALPHAQANFQRALELDSNDVEARFQLGLCLAQLEQVDEAIKHLQLVVEHVPNHADAHFNLGVAYAYKDRLEEALAHFERAIHIQPEHILAHNGKKTVEEVLNKGANEA", "values": [
      {"measurement": "soluble on expression in E. coli", "result": "not soluble"}
    ]},
    {"sequence": "MAVTVSVAQATPAPFDMAARFKALYTREWRWRQAEFPGVVERSSQPQCVDHLPKVDLARQNKRTAYWQQVLEELKTIDPVRLSSKDQINYQVYRQQIEVLLDGQRFRSWEMSFNSDTAFWSDLSFSARDRFRTSEDYRCYLGVLADIPRYFNEQIVNLRQGLARGFAQPRVTLEGRDQVIAEVAGAAGEDNLFYIPFKQMPTMMSAGEQARLRAQVLHLIVDQVVPAYRHLLAFMREEYLPKARTVLAAESLPGGVAYYRAKIFEYTTLDLDPEAIYQIGVAEVAKLRQQMDQVIVDSGFKTSPDQQIFSAFLRYLRTDPQFYPKTPEALLKEAAWIAKRVDAKIGLYIGRLPRRRFAIEPVPADVAPYYTSGRGGPGIYFVNTYDLPSRPLYNLTALTLHESSPGHALQMPLAEEAKEVPEFRRYAFISAYGEGWAVYAEYLGQEMGLYDTPYDRFGYLSYQIWRACRLVIDTGIHHKGWTRAQAQAYLRDNTALSEREITTEVDRYISWPGQALSYYLGELKILELRHKAEAALGAKFDIRHFHDAVLGLGSVPLQVLEARIDRFIAE", "values": [
      {"measurement": "soluble on expression in E. coli", "result": "not soluble"}
    ]},
    {"sequence": "MSELLEKAERLKTASQTLAMLSAEEKNAALEQIAQTLDRERAFILQENEKDMAQGCKQGLSPALLDRLQLTNERLDQIIDGVRQVASLPDPVGEIIAEWTRPNGLRIQTVRVPLGVIGMVYEARPNVTVDAASLCLKTGNAVLLRGSTSALHSNKALVRVMKEALRTTTVPETAIELLEDTSRETAQHMFRLNEYLDVLIPRGGAGLIRSVVENATVPVLETGVGNCHIFIDESAERQMAIDIVLNAKLQRPSVCNAVETVLIHERWPYADDLLETLHARGVELRGDQRLASAHPFVSEATEDDWYTEYLAPILAVKLVADVDEAIGHIRRYGTKHSEAIITENEANVRRFFQGVDAAVLYHNASTRFTDGEQFGYGAEIGISTQKLHARGPMGLVAITTTKSLVYGTGQIRE", "values": [
      {"measurement": "soluble on expression in E. coli", "result": "not soluble"}
    ]},
    {"sequence": "MGSDKIHHHHHHMVKLKDGFTGERALVLPRIIVDKMEEDPLTSMLHITDIGYYPKAKHHFRERKEPINQYVFIYCIDGAGSYRIGDQEYTVSANQYFILPAGVPHSYASNKSTPWTIYWIHFKGILAPFYAKDANRPMDIQSEQHSRISTRINLFEEIFNTLKNGYSNENLRYAFSMFHFYLGTLRYVQQYRNAGTNEAEDEGIVNVAIHYMKENMEKHLSLEEISTQIGYSPSHFSMLFKKQTGHSPLTYFNLLKMQQACLLLDTTDMKINQICYKIGIEDTYYFSRLFSKIMGMSPREYRKSKKG", "values": [
      {"measurement": "soluble on expression in E. coli", "result": "not soluble"}
    ]},
    {"sequence": "MPYIEKLELKGFKSYGNKKVVIPFSKGFTAIVGANGSGKSNIGDAILFVLGGLSAKAMRASRISDLIFAGSKNEPPAKYAEVAIYFNNEDRGFPIDEDEVVIRRRVYPDGRSSYWLNGRRATRSEILDILTAAMISPDGYNIVLQGDITKFIKMSPLERRLLIDDISGIAEYDSKKEKALEE", "values": [
      {"measurement": "soluble on expression in E. coli", "result": "soluble"}
    ]},
    {"sequence": "MSEQSICQARASVMVYDDTSKKWVPIKPGQQGFSRINIYHNTASSTFRVVGVKLQDQQVVINYSIVKGLKYNQATPTFHQWRDARQVYGLNFASKEEATTFSNAMLFALNIMNSQEGGPSTQRQVQNGPS", "values": [
      {"measurement": "soluble on expression in E. coli", "result": "soluble"}
    ]},
    {"sequence": "MNYIGSKYKLIPFIKENIHAVVGDNLSGTIFCDLFAGTGIVGRAFKKAVNKVISNDLEYYSFVLNQNYIGNIQEIPNQEELINEINSVALKKGFIYSYYSLGGSSRQYFSETNAQKIDAMRLKIEELKLSQNIDNCTYYFLLASLLESADKVANTASVYGAFLKRLKKSAQKELILKGADFDLSLNANEVYQQDASELIGKISGDILYLDPPYNARQYGANYHLLNTIAIYTPFAPKGKTGLPSYQKSSFCSRAKILNAFENLIKTARFKYIFLSYNNEGLMSETEIGNILKKYGTYSLMTKTYMRFKADNKRTHKAAHTKECLHILIK", "values": [
      {"measurement": "soluble on expression in E. coli", "result": "not soluble"}
    ]},
    {"sequence": "MQEDTLTSRGNMPYSLNVLIPLSCDLRPPVPQAIHAGRVDHRELGFVHPVSPGDVVAEVLVPAGEHFSPEVAQHLIGEGCALGDASTEHTEGQGVPVVATRSGHLDWDERALAVRDTLVVDEDVTYHVGNIRYFGDLIVRGMVRVAFRVRARSLLVEGLIEGAFIECERLEARGGVKAGGSGRLRVRETVAAPFMENAIVHAGSHVVVSGSSLHNEIKSNASVQVAERLIGGMTAARDSITVGERLGGGMSTLTRVQVGYDPFLNTAVHRLEVQAQHVEEVMLSCAKLAGRGGRLGDKAKARGERYAAALKRLRRKLADLLARLDATSTLETCTIDVRGEVRPGVEICIGPARLMNQDFLKNVRFSYCDGAVVATHPAGRTALEHHHHHH", "values": [
      {"measurement": "soluble on expression in E. coli", "result": "not soluble"}
    ]},
    {"sequence": "MGSDKIHHHHHHMNSTITPTLNLKAQHAERRVVVTGASGYVGARLVVELLSTGFNVRATSRSLSSLKRFPWYDQVEAVEADLSISEDVNRLFEDVDTVFYLVHSMSGTQNFEELESKIASKVAQAAHSNGVRQIIYLSGLHPRTELDKLSPHMRSRENVARILGSTAVPAITFRAATLIGSGSASFEMIRHLTERLPIMVAPQWINNKIEPISIRDTLYYLVKAADLPEPINEEFDIGSGHIYTFADLLRIYGKIRGLRRTIVSLPIPLPLDTLSGLWIAAITPAPLSLAQPLAQSMQEDAICSNRSIRDYISDPPSGLADYPTSVRRALQQESMGVLSSWDSSWKNLSSTDHLPSDPEWTGRTVYSDVQEQSFRSEPAKVWRVIEGIGGHHGWYSTPLLWFVRGVIDKAIGGPGLGGRRDPNRLRVGDRVDFWRVEEVTPEKQLTLRAEMRASGQAWLQFTINGNTLRQRAVYFPKGLLGRVYWLALIPFHAVIFPTMLRNIIQAGDN", "values": [
      {"measurement": "soluble on expression in E. coli", "result": "not soluble"}
    ]},
    {"sequence": "NKDGPVCLQVKPCTPEFYQTHFQLAYRLQSRPRGLALVLSNVHFTGEKELEFRSGGDVDHSTLVTLFKLLGYDVHVLCDQTAQEMQEKLQNFAQLPAHRVTDSCIVALLSHGVEGAIYGVDGKLLQLQEVFQLFDNANCPSLQNKPKMFFIQACRGDETDRGVDQQD", "values": [
      {"measurement": "soluble on expression in E. coli", "result": "soluble"}
    ]},
    {"sequence": "MGSSHHHHHHGGTGENLYFQGGSGSRFYTAKEVREHAFHDDAYVSLNGKVLDLTPLIAAYKEMPKFAHLAKPLVQVAGTDISHWWDAEANDLRSCVDVNSGMRTYAMPLGRVPHMPTIYPDSNIDLNYDIPWWKDPQYIIGALTSRTRRIRIVNTLTGDETTLDVCAEETLEELLRERYLSINAHARSYTWVRLDPDPRELDMSRTLEDNGIHDEADSFEDLGLNADYYIPAIHLYYNDDLTEA", "values": [
      {"measurement": "soluble on expression in E. coli", "result": "soluble"}
    ]}
  ]
}
